Experimental data published in patent publication US20240092890A1 (JUNTENDO EDUCATIONAL FOUNDATION, published 2024).
Where a chain is given by its changes, count along the chain named.

B1: Antibody 16 (bispecific antibody)
heavy: QVQLQQSGAELVKPGSSVKISCKASGYTFTRNFIHWIKQQPGNGLEWIGWIFPGDGDTEYNQKFNGKATLTADKSSSTAYMQLSSLTSEDSAVYFCARGNYNYEYFDYWGQGVMVTVSSASTKGPSVFPLAPSSKSTSGGTAALGCLVKDYFPEPVTVSWNSGALTSGVHTFPAVLQSSGLYSLSSVVTVPSSSLGTQTYICNVNHKPSNTKVDKRVEPKSCGGGGSQVQLVQSGGGVVQPGRSLRLSCKASGYTFTRYTMHWVRQAPGKGLEWIGYINPSRGYTNYNQKVKDRFTISRDNSKNTAFLQMDSLRPEDTGVYFCARYYDDHYSLDYWGQGTPVTVSSGGGGSGGGGSGGGGSDIQMTQSPSSLSASVGDRVTITCSASSSVSYMNWYQQTPGKAPKRWIYDTSKLASGVPSRFSGSGSGTDYTFTISSLQPEDIATYYCQQWSSNPFTFGQGTKLQITRHHHHHH
light: DIQMTQSPASLSASLGETVSIECLASEDIYSYLAWYQQKPGKSPQLLIFAANRLQDGVPSRFSGSGSGTQFSLKISGMQPEDEGDYFCLQGSKFPYTFGPGTKLELNRTVAAPSVFIFPPSDEQLKSGTASVVCLLNNFYPREAKVQWKVDNALQSGNSQESVTEQDSKDSTYSLSSTLTLSKADYEKHKVYACEVTHQGLSSPVTKSFNRGEC
notes: B3 Fab with hOKT3 scFv fused to the Fab heavy chain C-terminus
B2: Antibody 17 (bispecific antibody)
heavy: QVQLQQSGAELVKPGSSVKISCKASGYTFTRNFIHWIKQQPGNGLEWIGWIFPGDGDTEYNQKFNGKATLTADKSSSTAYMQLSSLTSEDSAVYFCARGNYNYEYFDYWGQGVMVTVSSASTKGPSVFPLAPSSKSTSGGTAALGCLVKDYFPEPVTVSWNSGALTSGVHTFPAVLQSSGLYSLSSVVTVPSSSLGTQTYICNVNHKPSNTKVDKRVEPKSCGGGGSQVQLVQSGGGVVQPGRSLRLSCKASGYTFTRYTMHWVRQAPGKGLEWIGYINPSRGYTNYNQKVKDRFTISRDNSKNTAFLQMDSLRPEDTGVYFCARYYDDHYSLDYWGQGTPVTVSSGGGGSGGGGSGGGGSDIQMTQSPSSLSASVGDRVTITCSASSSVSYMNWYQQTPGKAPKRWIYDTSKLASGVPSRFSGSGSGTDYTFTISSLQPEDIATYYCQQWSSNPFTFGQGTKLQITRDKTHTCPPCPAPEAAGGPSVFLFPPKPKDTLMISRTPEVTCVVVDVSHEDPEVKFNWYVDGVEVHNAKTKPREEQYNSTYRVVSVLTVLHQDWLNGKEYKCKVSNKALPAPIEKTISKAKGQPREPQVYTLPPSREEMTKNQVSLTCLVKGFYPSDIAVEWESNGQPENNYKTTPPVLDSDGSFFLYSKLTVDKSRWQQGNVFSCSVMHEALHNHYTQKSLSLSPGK
light: B1 light
notes: B3 Fab heavy chain, hOKT3 scFv and Fc in one polypeptide, with the B3 light chain
B3: Antibody 19 (bispecific antibody)
heavy: QVQLQQSGAELVKPGSSVKISCKASGYTFTRNFIHWIKQQPGNGLEWIGWIFPGDGDTEYNQKFNGKATLTADKSSSTAYMQLSSLTSEDSAVYFCARGNYNYEYFDYWGQGVMVTVSSASTKGPSVFPLAPSSKSTSGGTAALGCLVKDYFPEPVTVSWNSGALTSGVHTFPAVLQSSGLYSLSSVVTVPSSSLGTQTYICNVNHKPSNTKVDKRVEPKSCGGGGSQVQLVQSGGGVVQPGRSLRLSCKASGYTFTRYTMHWVRQAPGKGLEWIGYINPSRGYTNYNQKVKDRFTISRDNSKNTAFLQMDSLRPEDTGVYFCARYYDDHYSLDYWGQGTPVTVSSGGGGSGGGGSGGGGSDIQMTQSPSSLSASVGDRVTITCSASSSVSYMNWYQQTPGKAPKRWIYDTSKLASGVPSRFSGSGSGTDYTFTISSLQPEDIATYYCQQWSSNPFTFGQGTKLQITRGGGGSQVQLQQSGAELVKPGSSVKISCKASGYTFTRNFIHWIKQQPGNGLEWIGWIFPGDGDTEYNQKFNGKATLTADKSSSTAYMQLSSLTSEDSAVYFCARGNYNYEYFDYWGQGVMVTVSSASTKGPSVFPLAPSSKSTSGGTAALGCLVKDYFPEPVTVSWNSGALTSGVHTFPAVLQSSGLYSLSSVVTVPSSSLGTQTYICNVNHKPSNTKVDKRVEPKSCHHHHHH
light: B1 light
notes: B3 Fab heavy chain, hOKT3 scFv and a second B3 Fab heavy chain in one polypeptide, with the B3 light chain
B4: Antibody 20 (bispecific antibody)
heavy: QVQLVQSGGGVVQPGRSLRLSCKASGYTFTRYTMHWVRQAPGKGLEWIGYINPSRGYTNYNQKVKDRFTISRDNSKNTAFLQMDSLRPEDTGVYFCARYYDDHYSLDYWGQGTPVTVSSGGGGSGGGGSGGGGSDIQMTQSPSSLSASVGDRVTITCSASSSVSYMNWYQQTPGKAPKRWIYDTSKLASGVPSRFSGSGSGTDYTFTISSLQPEDIATYYCQQWSSNPFTFGQGTKLQITRGGGGSQVQLQQSGAELVKPGSSVKISCKASGYTFTRNFIHWIKQQPGNGLEWIGWIFPGDGDTEYNQKFNGKATLTADKSSSTAYMQLSSLTSEDSAVYFCARGNYNYEYFDYWGQGVMVTVSSASTKGPSVFPLAPSSKSTSGGTAALGCLVKDYFPEPVTVSWNSGALTSGVHTFPAVLQSSGLYSLSSVVTVPSSSLGTQTYICNVNHKPSNTKVDKRVEPKSCHHHHHH
light: B1 light
notes: hOKT3 scFv fused to the N-terminus of the B3 Fab heavy chain
B5: Antibody 18 (bispecific antibody)
heavy: QVQLQQSGAELVKPGSSVKISCKASGYTFTRNFIHWIKQQPGNGLEWIGWIFPGDGDTEYNQKFNGKATLTADKSSSTAYMQLSSLTSEDSAVYFCARGNYNYEYFDYWGQGVMVTVSSASTKGPSVFPLAPSSKSTSGGTAALGCLVKDYFPEPVTVSWNSGALTSGVHTFPAVLQSSGLYSLSSVVTVPSSSLGTQTYICNVNHKPSNTKVDKRVEPKSCGGGGSQVQLVQSGGGVVQPGRSLRLSCKASGYTFTRYTMHWVRQAPGKGLEWIGYINPSRGYTNYNQKVKDRFTISRDNSKNTAFLQMDSLRPEDTGVYFCARYYDDHYSLDYWGQGTPVTVSSGGGGSGGGGSGGGGSDIQMTQSPSSLSASVGDRVTITCSASSSVSYMNWYQQTPGKAPKRWIYDTSKLASGVPSRFSGSGSGTDYTFTISSLQPEDIATYYCQQWSSNPFTFGQGTKLQITRAAAGGGQPREPQVYTLPPSREEMTKNQVSLTCLVKGFYPSDIAVEWESNGQPENNYKTTPPVLDSDGSFFLYSKLTVDKSRWQQGNVFSCSVMHEALHNHYTQKSLSLSPGK
light: B1 light
notes: B3 Fab heavy chain, hOKT3 scFv and CH3 domain in one polypeptide, with the B3 light chain
B6: Antibody 11 (bispecific antibody)
chain: QVQLVQSGGGVVQPGRSLRLSCKASGYTFTRYTMHWVRQAPGKGLEWIGYINPSRGYTNYNQKVKDRFTISRDNSKNTAFLQMDSLRPEDTGVYFCARYYDDHYSLDYWGQGTPVTVSSGGGGSGGGGSGGGGSDIQMTQSPSSLSASVGDRVTITCSASSSVSYMNWYQQTPGKAPKRWIYDTSKLASGVPSRFSGSGSGTDYTFTISSLQPEDIATYYCQQWSSNPFTFGQGTKLQITRGGGGSQVQLQQSGAELVKPGSSVKISCKASGYTFTRNFIHWIKQQPGNGLEWIGWIFPGDGDTEYNQKFNGKATLTADKSSSTAYMQLSSLTSEDSAVYFCARGNYNYEYFDYWGQGVMVTVSSGGGGSGGGGSGGGGSDIQMTQSPASLSASLGETVSIECLASEDIYSYLAWYQQKPGKSPQLLIFAANRLQDGVPSRFSGSGSGTQFSLKISGMQPEDEGDYFCLQGSKFPYTFGPGTKLELNHHHHHH
B7: Antibody 82 (bispecific antibody)
chain 1: not shown
chain 2: DIQMTQSPSSLSASVGDRVTITCLASEDIYSYLAWYQQKPGKAPKLLIFAANRLQSGVPSRFSGSGSGTDFTLTISSLQPEDFATYYCLQGSKFPYTFGPGTKVDIKRTVAAPSVFIFPPSDEQLKSGTASVVCLLNNFYPREAKVQWKVDNALQSGNSQESVTEQDSKDSTYSLSSTLTLSKADYEKHKVYACEVTHQGLSSPVTKSFNRGEC
B8: Antibody 80 (bispecific antibody)
chain 1: not shown
chain 2: B7 chain 2 with S56D
B9: Antibody 85 (bispecific antibody)
chain 1: not shown
chain 2: B7 chain 2
B10: Antibody 84 (bispecific antibody)
chain 1: not shown
chain 2: B7 chain 2
B11: Antibody 83 (bispecific antibody)
chain 1: not shown
chain 2: B7 chain 2
B12: Antibody 25 (bispecific antibody)
heavy: QVQLQQSGAELVKPGSSVKISCKASGYTFTRNFIHWIKQQPGNGLEWIGWIFPGDGDTEYNQKFNGKATLTADKSSSTAYMQLSSLTSEDSAVYFCARGNYNYEYFDYWGQGVMVTVSSASTKGPSVFPLAPSSKSTSGGTAALGCLVKDYFPEPVTVSWNSGALTSGVHTFPAVLQSSGLYSLSSVVTVPSSSLGTQTYICNVNHKPSNTKVDKRVEPKSCAAAGGGQPREPQVYTLPPSREEMTKNQVSLTCLVKGFYPSDIAVEWESNGQPENNYKTTPPVLDSDGSFFLYSKLTVDKSRWQQGNVFSCSVMHEALHNHYTQKSLSLSPGK
light: QVQLVQSGGGVVQPGRSLRLSCKASGYTFTRYTMHWVRQAPGKGLEWIGYINPSRGYTNYNQKVKDRFTISRDNSKNTAFLQMDSLRPEDTGVYFCARYYDDHYSLDYWGQGTPVTVSSGGGGSGGGGSGGGGSDIQMTQSPSSLSASVGDRVTITCSASSSVSYMNWYQQTPGKAPKRWIYDTSKLASGVPSRFSGSGSGTDYTFTISSLQPEDIATYYCQQWSSNPFTFGQGTKLQITRGGGGSDIQMTQSPASLSASLGETVSIECLASEDIYSYLAWYQQKPGKSPQLLIFAANRLQDGVPSRFSGSGSGTQFSLKISGMQPEDEGDYFCLQGSKFPYTFGPGTKLELNRTVAAPSVFIFPPSDEQLKSGTASVVCLLNNFYPREAKVQWKVDNALQSGNSQESVTEQDSKDSTYSLSSTLTLSKADYEKHKVYACEVTHQGLSSPVTKSFNRGEC

How the values were obtained:
[1] = target: T1, Ins 5 type mutant CALR protein on UT-7/TPO CALR Ins 5 cells (UniProt P27797 18-417); assay: cell-based or functional assay
T1 sequence (looked up): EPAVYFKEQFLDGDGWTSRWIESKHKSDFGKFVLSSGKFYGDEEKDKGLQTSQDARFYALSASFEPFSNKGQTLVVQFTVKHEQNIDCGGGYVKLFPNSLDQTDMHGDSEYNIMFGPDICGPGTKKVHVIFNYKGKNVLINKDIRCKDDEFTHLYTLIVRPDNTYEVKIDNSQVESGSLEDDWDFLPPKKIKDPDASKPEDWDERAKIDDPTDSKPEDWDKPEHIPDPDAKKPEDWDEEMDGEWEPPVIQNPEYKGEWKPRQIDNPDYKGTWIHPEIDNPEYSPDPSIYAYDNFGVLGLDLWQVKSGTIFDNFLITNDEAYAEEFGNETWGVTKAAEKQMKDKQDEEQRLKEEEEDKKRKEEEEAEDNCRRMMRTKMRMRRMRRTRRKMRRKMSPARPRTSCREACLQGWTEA

[2] = target: T2, protein having an Fc region and a His-tag added to the N-terminus of SEQ ID NO: 1; assay: BLItz biolayer interferometry, Fc/His-SEQ ID NO: 1 protein on the biosensor
T2 construct: also called mutant CALR protein (antigen of the BLItz measurement); not shown: Fc region and His-tag at the N-terminus
T2 chain: RRMMRTKMRMRRM
Procedure: As another method, measurements were performed using the molecular interaction analysis system BLItz (ForteBio), which applies biolayer interferometry […]. Specifically, a protein having an Fc region and a His-tag added to the N-terminus of SEQ ID NO: 1 was immobilized at a concentration of 0.1 mg/mL using the Anti-Penta-HIS or ProteinA biosensor (ForteBio). Subsequently, the antibodies 1 to 114 made were prepared at a concentration of 500, 100, and 50 nM and reacted to acquire the dissociation constant.

[3] = target: T1, Ins 5 type mutant CALR protein on …; assay: cell-based or functional assay; remark: listed apart in the source

| Binder | EC50 of cytotoxic activity (calcein release, T-LAK effector cells) [1] | Kd [2] | EC50 of cytotoxic activity (pM) [3] |
| --- | --- | --- | --- |
| B1 | 0.334 nM | 2.83 nM |  |
| B2 | 0.046 nM | < 0.001 nM |  |
| B3 | 3.71 nM | 0.728 nM |  |
| B4 | 1.46 nM | 12.4 nM |  |
| B5 | 0.081 nM | < 0.001 nM |  |
| B6 | 1.26 nM |  |  |
| B7 |  | < 0.001 nM | 22 pM |
| B8 |  | < 0.001 nM | 28 pM |
| B9 |  | < 0.001 nM | 389 pM |
| B10 |  | < 0.001 nM | 277 pM |
| B11 |  | < 0.001 nM | 110 pM |
| B12 | 0.056 nM |  |  |
